Results: PMC11574045, “A cofactor-induced repressive type of transcription factor condensation can be induced by synthetic peptides to suppress tumorigenesis” (The EMBO Journal, 2024)

Tested on: HEK293FT cells transfected with TF library
Assay: Screening of TF condensates based on fluorescent puncta
Format: cell-based
Settings: Figure 1B numerical data; TF library screen, one value per transcriptional factor
Procedure, shortened: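 Puncta scoring used automated confocal imaging of fifty random fields per well, after anti-Flag or anti-GAL4 immunofluorescence (Alexa 488) in PFA-fixed cells. HEK293FT cells carried TF library plasmids delivered with PEI (1.6 μg/ml DNA). At 60 h they were switched for 12 h to glucose-containing or glucose-free medium.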

Molecule | Z score of condensed fraction
ZNF41 (protein, UniProt P51814 1-821, looked up) Zinc finger protein 41: MAANGDSPPWSPALAAEGRGSSCEVRRERTPEARIHSVKRYPDLSPGPKGRSSADHAALNSIVSLQASVSFEDVTVDFSKEEWQHLDPAQRRLYWDVTLENYSHLLSVGYQIPKSEAAFKLEQGEGPWMLEGEAPHQSCSGEAIGKMQQQGIPGGIFFHCERFDQPIGEDSLCSILEELWQDNDQLEQRQENQNNLLSHVKVLIKERGYEHKNIEKIIHVTTKLVPSIKRLHNCDTILKHTLNSHNHNRNSATKNLGKIFGNGNNFPHSPSSTKNENAKTGANSCEHDHYEKHLSHKQAPTHHQKIHPEEKLYVCTECVMGFTQKSHLFEHQRIHAGEKSRECDKSNKVFPQKPQVDVHPSVYTGEKPYLCTQCGKVFTLKSNLITHQKIHTGQKPYKCSECGKAFFQRSDLFRHLRIHTGEKPYECSECGKGFSQNSDLSIHQKTHTGEKHYECNECGKAFTRKSALRMHQRIHTGEKPYVCADCGKAFIQKSHFNTHQRIHTGEKPYECSDCGKSFTKKSQLHVHQRIHTGEKPYICTECGKVFTHRTNLTTHQKTHTGEKPYMCAECGKAFTDQSNLIKHQKTHTGEKPYKCNGCGKAFIWKSRLKIHQKSHIGERHYECKDCGKAFIQKSTLSVHQRIHTGEKPYVCPECGKAFIQKSHFIAHHRIHTGEKPYECSDCGKCFTKKSQLRVHQKIHTGEKPNICAECGKAFTDRSNLITHQKIHTREKPYECGDCGKTFTWKSRLNIHQKSHTGERHYECSKCGKAFIQKATLSMHQIIHTGKKPYACTECQKAFTDRSNLIKHQKMHSGEKRYKASD | -0.7537
CCNC (protein, UniProt P24863 1-283, looked up) Cyclin-C: MAGNFWQSSHYLQWILDKQDLLKERQKDLKFLSEEEYWKLQIFFTNVIQALGEHLKLRQQVIATATVYFKRFYARYSLKSIDPVLMAPTCVFLASKVEEFGVVSNTRLIAAATSVLKTRFSYAFPKEFPYRMNHILECEFYLLELMDCCLIVYHPYRPLLQYVQDMGQEDMLLPLAWRIVNDTYRTDLCLLYPPFMIALACLHVACVVQQKDARQWFAELSVDMEKILEIIRVILKLYEQWKNFDERKEMATILSKMPKPKPPPNSEGEQGPNGSQNSSYSQS | -0.5132
CBX2 (protein, UniProt Q14781 1-532, looked up) Chromobox protein homolog 2: MEELSSVGEQVFAAECILSKRLRKGKLEYLVKWRGWSSKHNSWEPEENILDPRLLLAFQKKEHEKEVQNRKRGKRPRGRPRKLTAMSSCSRRSKLKEPDAPSKSKSSSSSSSSTSSSSSSDEEDDSDLDAKRGPRGRETHPVPQKKAQILVAKPELKDPIRKKRGRKPLPPEQKATRRPVSLAKVLKTARKDLGAPASKLPPPLSAPVAGLAALKAHAKEACGGPSAMATPENLASLMKGMASSPGRGGISWQSSIVHYMNRMTQSQAQAASRLALKAQATNKCGLGLDLKVRTQKGELGMSPPGSKIPKAPSGGAVEQKVGNTGGPPHTHGASRVPAGCPGPQPAPTQELSLQVLDLQSVKNGMPGVGLLARHATATKGVPATNPAPGKGTGSGLIGASGATMPTDTSKSEKLASRAVAPPTPASKRDCVKGSATPSGQESRTAPGEARKAATLPEMSAGEESSSSDSDPDSASPPSTGQNPSVSVQTSQDWKPTRSLIEHVFVTDVTANLITVTVKESPTSVGFFNLRHY | 1.201
